Data published in PMC11467045, “The hGID^GID4 E3 ubiquitin ligase complex targets ARHGAP11A to regulate cell migration” (Life Science Alliance, 2024).
Where no end group is shown, it is not given here.

T1: GID4^Δ1–115 (human, UniProt Q8IVV7 116-300)
T1 construct: also called recombinant GID4 lacking its N-terminal domain; source: E. coli Rosetta 2(DE3)pLysS, purified (Strep-Tactin, Ulp1 cleavage, size-exclusion chromatography); not shown: 2xStrepII, N-terminal, cleaved; Smt3, N-terminal, cleaved
T1 sequence (looked up): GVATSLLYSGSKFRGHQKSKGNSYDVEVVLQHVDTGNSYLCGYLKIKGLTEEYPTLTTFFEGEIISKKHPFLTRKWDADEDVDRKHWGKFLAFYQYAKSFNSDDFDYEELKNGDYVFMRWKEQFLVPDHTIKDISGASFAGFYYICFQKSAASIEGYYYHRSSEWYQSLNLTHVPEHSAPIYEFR

B1: PGLWKS-TAMRA (peptide)
peptide: PGLWKS-{TAMRA}
notes: control degron peptide (Dong et al, 2018); also called TAMRA-labeled control peptide PGLWKS
B2: PGKLRSDAG (peptide)
peptide: PGKLRSDAG
notes: amino terminus of DDX21 (Owens et al, 2024), without the initiator methionine; also called N-terminal peptide of DDX21

Columns and labels:
GID4^Δ1–115 [1] = biological target: T1, GID4^Δ1–115; assay: fluorescence polarisation; saturation binding: 20 nM TAMRA-labeled peptide with indicated GID4^Δ1–115 concentrations, 10 min, FP buffer (20 mM MOPS pH 7.6, 100 mM NaCl, 25 mM D-trehalose, 1% glycerol, 0.01% Triton X-100, 0.1 g/l BSA); one site-specific binding model; details: both partners purified
GID4^Δ1–115 [2] = biological target: T1, GID4^Δ1–115; assay: fluorescence polarisation; competition: 20 μM GID4^Δ1–115 and 20 nM PGLWKS-TAMRA, 10 min with twofold dilutions of unlabeled peptides in FP buffer; log(inhibitor) versus response, variable slope; details: both partners purified

Binder | Kd (GID4^Δ1–115 [1]) [µM] | IC50 (GID4^Δ1–115 [2]) [µM]
B1 | 2.4 | 
PGLWKS (control degron peptide, unlabeled) [unlabeled PGLWKS] |  | 30.3
B2 |  | 83.4
